How the values were obtained:
[1] = biological target: T1, HPV18 E6蛋白 (宫颈癌细胞株Hela细胞内源表达) (HPV18, UniProt P06463 1-158, limits assumed); test: immunocytochemistry on fixed HeLa cells mixed with a negative clinical pool, DAB
T1 construct: whole, on cells; Intracellular protein in fixed cells, stained by immunocytochemistry; HeLa cells were mixed into a pool of negative clinical samples

Flag-HPV16 E6 = biological target: T2, Flag-HPV16 E6 (HPV16, UniProt P03126 1-158); test: sandwich ELISA: flag antibody capture of 293T lysate (fresh or liquid-based fixed)
T2 chain: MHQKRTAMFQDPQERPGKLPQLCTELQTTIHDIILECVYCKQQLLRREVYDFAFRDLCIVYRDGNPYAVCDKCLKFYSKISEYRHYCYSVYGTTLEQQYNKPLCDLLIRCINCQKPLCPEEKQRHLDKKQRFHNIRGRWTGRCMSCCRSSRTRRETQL

FLAG-HPV18 E6 = biological target: T3, FLAG-HPV18 E6 (HPV18, UniProt P06463 1-158); test: as above
T3 construct: Flag-E6 fusion protein from transfected 293T cell lysate, captured on a coated flag antibody; also called 可溶性蛋白HPV18 E6

FLAG-HPV6 E6 [2] = biological target: T4, FLAG-HPV6 E6 (HPV6, UniProt P06462 1-150); test: sandwich ELISA; (HPV OD450 - 293T negative control)/HPV16 OD450, HPV16 E6 = 100%
T4 construct: Flag-E6 fusion protein from transfected 293T cell lysate, captured on a coated flag antibody
T4 chain: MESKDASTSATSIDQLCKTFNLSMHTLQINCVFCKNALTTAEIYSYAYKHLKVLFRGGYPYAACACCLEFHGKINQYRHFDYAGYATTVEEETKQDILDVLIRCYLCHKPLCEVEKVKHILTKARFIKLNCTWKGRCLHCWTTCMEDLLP

FLAG-HPV68 E6 [3] = biological target: T5, FLAG-HPV68 E6 (HPV68); test: as above
T5 construct: Flag-E6 fusion protein from transfected 293T cell lysate, captured on a coated flag antibody

FLAG-HPV11 E6 [4] = biological target: T6, FLAG-HPV11 E6 (HPV11, UniProt P04019 1-150); test: as above
T6 construct: Flag-E6 fusion protein from transfected 293T cell lysate, captured on a coated flag antibody
T6 sequence: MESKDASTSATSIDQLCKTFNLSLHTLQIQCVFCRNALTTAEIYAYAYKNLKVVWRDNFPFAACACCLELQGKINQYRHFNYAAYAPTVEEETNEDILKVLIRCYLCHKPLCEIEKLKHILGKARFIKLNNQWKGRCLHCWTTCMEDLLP

FLAG-HPV6 E6 [5] = biological target: T4, FLAG-HPV6 E6; test: sandwich ELISA: flag antibody capture of Flag-E6 from 293T lysate, A4F9 supernatant 1:1
FLAG-HPV68 E6 [6] = biological target: T5, FLAG-HPV68 E6; test: as above
FLAG-HPV11 E6 [7] = biological target: T6, FLAG-HPV11 E6; test: as above
[8] = biological target: T7, HPV16 E6蛋白 (宫颈癌细胞株CaSki细胞内源表达) (HPV16, UniProt P03126 1-158); test: immunocytochemistry on fixed CaSki cells, DAB
T7 construct: whole, on cells; Intracellular protein in fixed cells (95% ethanol, EDTA heat retrieval), stained by immunocytochemistry; also called CaSki阳性标准对照细胞

FLAG-HPV6 E6 [9] = biological target: T4, FLAG-HPV6 E6; test: sandwich ELISA: flag antibody capture of 293T lysate, A4F9 supernatant 1:1
FLAG-HPV11 E6 [10] = biological target: T6, FLAG-HPV11 E6; test: as above

T1 sequence (P06463 whole entry): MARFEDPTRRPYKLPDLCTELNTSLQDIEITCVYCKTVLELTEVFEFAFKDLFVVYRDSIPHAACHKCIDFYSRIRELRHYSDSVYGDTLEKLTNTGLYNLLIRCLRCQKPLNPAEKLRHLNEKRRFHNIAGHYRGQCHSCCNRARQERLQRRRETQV
T3 sequence (P06463 whole entry, the tested form may be a part): as the sequence (P06463 whole entry) above

B1: 抗HPV E6兔源单克隆抗体 A4F9 (antibody, V domains shown)
VH: QEQLVESGGGLVQPEGSLTLTCTASGFSFSSSYWICWVRQAPGKGLEWIACIYSGDGDAYYASWAKGRFTISKTSSTTVTLQMTSLTAADTAAYFCARDRVYDSSSGHGLWGPGTLVTVSS
VL: DIVMTQTPFSVSAAAGGTVTINCQASENIYSNLAWYQQKPGQRPKLLIYGTSDLPSGVPSRFSGSGYGTEFTLTISDLECADAATYYCQSYYYRSSSAYGWDFGGGTEVVVK
notes: Rabbit monoclonal from single B cell cloning, tested as clone supernatant (rabbit IgG, detected with goat anti-rabbit-HRP); also called 克隆上清A4F9; A4F9克隆
B1: binds [1]; binds (Flag-HPV16 E6); binds (FLAG-HPV18 E6). For the same binder, the “%交叉活性” value (FLAG-HPV6 E6 [2]) was -6.3%, the “%交叉活性” value (FLAG-HPV68 E6 [3]) was 6.3% and the “%交叉活性” value (FLAG-HPV11 E6 [4]) was -5.2%. The OD450 (FLAG-HPV6 E6 [5]) was 0.1, the OD450 (FLAG-HPV68 E6 [6]) was 0.5 and the OD450 (FLAG-HPV11 E6 [7]) was 0.1. B1: binds [8]; no binding (FLAG-HPV6 E6 [9]); no binding (FLAG-HPV11 E6 [10]).

Source: CN116410306A (ATTOGEN BIOMEDICAL SUZHOU INC LTD, dated 2023)
